From the domain aggregation screens of Martell et al. (2025)

assay: soluble fraction after stress (log2 fold change); higher = more stays soluble; pooled small domains, quantitative proteomics; conditions: stress: 50 degC
Outline: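 Pooled custom libraries of small protein domains were each held under stress at 50°C. The read-out, high-throughput quantitative proteomics, tracked how much of each protein stayed soluble. This is reported as a base-two log fold change used to indicate aggregation propensity. Higher values mean more protein remains in solution.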

Sequence | soluble fraction (log2)
HMGSLGSLLKSVRNQRGLSRQQMAQSLNIGVRAIEQIEEGERKPDLELLNRYARGLMDPSVT | -0.0584
HMNKPTSMYKLRLLLKHYHAGASKRWMADVLDISRSTLNVYLARIESLNLAFEEWEALSDLEVSRLLINP | -3.05
HMSLEDMILSLSSRIRRGESLHFRELLVAIETKSGMVTIFMAVLELLKQQVMEMRYEDDDIIFT | -0.912
HMAVNVNGIHLSSQQHEALVSIWRTGRMPEPHAGQKPWLWIQALRRRGLVSGNALRLTDKGRHIVQLLQ | 0.142
HMKTAWDELNEVIEAYRGQESALIEVLHKAQEIMGYLPRDVQEAIAEGLHVPLNKVYGVVSFYHHFSV | 0.178
HMDDFVEIDGKKYEIDMSFDNILRLFDLLKDKSLNDVTKIETGLIMLIDDSLDDYDTEEKADIFVQIF | -0.0316
HMPALATKDSVLDGRAEVVSYVRDTSVFYLRVRVPQKQGYRSRRIDGVSTLPEAITKALDTYMDLGT | -2.57
HMQEEMIRGDIKLNTVMQTVHLAVGTETERNWQPVETTAKEFELLKLLMENPGVTLKKEYLFHMLI | -0.102
HMRQFEPVEGYNPYADKNELHGYEYWGAKFADSRSPEETAWIKQQIDDENEDRRFISEAGLA | -0.0012
HMNGAVAEQARKQLMAALKASEFIAEEKLDEWLDALALPEDKRTAIVDAVDELDYEEAISELEN | 0.0153
HMSRESNISTGRQLLEAQLPTWGYKKVEDIPSKQMKTALDAFNYKDVESLLQGLGEGSVALTTALRRLMP | 0.313
HMETKKEIIEAINELEEKYRNAIYLTSIEKLSYEETSKILGQSLSNTKNLIHRGKQQLRKILIKK | -0.214
HMAVSTFGRITASSLNVRSGPSTDHEKVGSLAAGRVVELLEESDGWYRIENGYISTEYVTIVDPSQ | -0.355
HMVNGEFIDRIKVILQENNATRKKDRLTKTRMYQLLQEEGYEGSYSAFTYQVRIIEEELGINNK | -1.51
HMAQIVNLPRKNVNGASYYYYEVQPKETIYSISRKLGVSGAEIQRHNPSVADGLKIGQVLYFPAEG | 0.0843
HMTVGEAHLEEVYLKVLKQVEEQGTALIRTTDVETGRPAAGIRRRYMRGTLPDEWVAKFEALPGWTWAPG | -0.879
HMKPRVTVVTLGVDDLERAVRFYAEGLGFPTEGIVGREFEFGAVAFFDMQPGLRLALWPRRSLAHDSGLP | -0.306
HMSSDLLGVRVRRARARAGLTRRRLSLLSGVSERFLAQLESGQGNISIVLIRRVAAALGAELVELIGS | -0.74
HMLADIGGRIADLRREVGLTQGELAEKADISVVHLSNIELGKKTPGLSTLIRIAEALDVATDWILQA | -1.02
HMGAISGEQREFYTVFRGHLNSHVGEFKVEDIENLLMKAKTEVPDLLEEEFLKMGEAILNRYRN | -0.0826
HMPAMYKAERMNQILSILADQGDVDVGTLARQFGVSLVTIRKDLTYLESSGQLVRTHGGAIAVA | -0.767
HMSERIITFGEATREAMLEEMRADERVFVYGEDIAKQGGIFGQFAGMKDEFPERVLDTPISETALVGAG | 0.0621
HMNKAYLTVADMKKDKSLKNGDVVRTLGYYGYNDGDGAVYQIKDSHPEDYHIRLDNGLDAEQINY | 0.012

Sequence | soluble fraction (log2)
HMSSPDMSLLYSELDVKDSGQIVTILEQRNIPYEVRNNGSQIYIPSNNVQRIRLSLAQEGLPSG | -0.0716
HMLGKNEAKEYKVAYGDIGKMPALIMGLVPLPKPPVVDERLRTLYVTATPEQHREIEAIMNRI | 0.156
HMSYTPGQWVEASMPNATFFRIVPSGNATADKMLAVATPMKVISTSGTYVKVELDSGDVGFVPEIMV | -0.46
HMETLGADLRALRKSRGLTLLDMAESLGRSVGWLSQVERDLSDPSISDLREIAELLGVPISMLFRH | -2.86
HMGWEDLVGKTAVVKVALAPVGMVFFRGEFWSAISETGRIEPGEEVTISRIDGLKLYVTKKRIM | -0.607
HMYKIDFAEGDRVIIKGGAFSGLRATVVSLHPEKGMAKIKVYMFGDRETLVDIEVSQLEKDK | -0.348
HMRKKIIAQTLEEIRKSKGYSQKQVAAFIKVKPTTYNTYESGRTEPPAEILVRLSYLYRTPVDTLVQRDR | -2.07
HMVIDETVLIDLFERLAEDDRPQRVAFRYILALVLLRKRTLQLIGREDEDDGEIWLLRFKGTDGEPIRV | -0.297
HMSLAVFLQGLLEEKQLKKADVIRRTGMEPTYGYHIFDGHKKHPARSKVLLLALAMGLTVKEAQHLLYYAG | -0.116
HMPLVIIRGIEGVFSSEEKAEAIRKVTDALVSVKGENVRGFAWVVFEEVKSGDWGIGGESITAEKVIMSL | -0.0828
HMRKATEVPFTAFKDSIENSHGKLSKAGLARHLADEYGMSQRNMERRINNLIDNKTIKYGNEGGLVWIG | -0.0291
HMDGLTEQQADDILAFISIKGTNAEVLAALENYAGRNETFDTGLSELKVVASNLAAFGMPEENFVVDL | 0.0102
HMERFVVISKDKYANLREEASTNSKVLAKVDNSYLIYNTNTYNENKDWYSVQIERDGNYYQVGYIHKSQL | -1.79
HMIIVMSANANAREISEVIARIRAMGYDVHLSHGKERTIIGVIGRGTPIDREQLSLMSGVQQVMPV | -1.03
HMDKRYYYRILGLVGEPTRDQIEAAYETRIAKLRSSDYGDDPLYARRKISEVTMAYKVLTGS | -0.281
HMSSGLLTVQEQRILEHLANGERNGDIAGRLHISEGTVKWHLHNMYRKLDAATRTQAVARARALRL | -0.109
HMSWEQELIEKANEIIDLYPEKRSALGPLLYLAQERDGYISDESIVEISNLVGITEVQVKSVASFYSMYK | -3.57
HMVERQVTVPNLTGLGVADAQRLAQSMELDIEVLGEQESTDARPGAVLQQTPGAGTRAAAGSVVSVLV | 0.0752
HMLLQENRKLHSKLEELQLISRAKAVLIEYLKLTEPQAHRYIEKQAMDLGLTRPQVALNILKTYE | -0.202
HMGASTQLVEIKNAYENGEWQNVIDLAGKLHEKYNGSEEDKEAQEMAKNSQSKLDEAAAAKAAEEA | -0.033
HMFDITKEVLKQSGLYNLYKNDESLEGINRIQNIEELLNGIKDFVENNEKSQASVSSFLQDVALATDQ | 0.126
HMVSTDPVHLFNLGTANRRAGRASEAITSYRKFMEAAPQHPQVPEARAYIHDMEVLLQERQKSEQAASQLS | 0.0843
HMEYELYALKEEVLKRLTREDRELLILLFEERRTIHAVAQRLGLSDSAVYKRRTQLVNKVKVIASMLM | -2.13

Sequence | soluble fraction (log2)
HMAKRDEIEAELPRFVATITQELAASRDVLSMIEHYKQNSGPVFSAELDVLTADMRSGSYEAALTRFEARF | 0.0338
HMIQMRVKVPKNIAGGSLMGAHHFVKSALARTNPGGSTSNYKIQATDGTPLTLGDLTARQYDEVLIISG | 0.0101
HMRDITAQSNASELYFEERDLEAFIEKLERLYPEIRYVNRLMIHSWGQQVVRFFDPDGNLIEVGTP | -0.145
HMTARPTLEKLKYMIHEAGITENSLKVIVATKGHYGLDADISTYSDDFITRWIIPNWTKIVQTISNNK | -0.348
HMGKRKDFTYTGNYFSEYKNQTFPSLSSFLKLVGKYENYGTIKRRVRFGWDIDEAILRENIN | -0.773
HMGGRRHANMSREEEAAFLAPFFEKAAQGGILVVREIRQALDAHLGRTVPLSTVYNLLHRHNWRKL | -2.71
HMPAEGWEASGDTWRYRQKDGSYITNAWVQDTDGKWYYFDESSLMVRNQTTSDGYYVGEDGVWTET | -0.395
HMRARTLSTTGGESLLTLAESLYPDDDRARARFIEATAAANPKLFADIAALTRVLPAGTTLRMPDLRA | 0.0417
HMPERLTYVHPDGAEPMRADKALAAFLSGRISRSRLLGSFSAGKVMAGGKPVEKKLLLRAGDALEVELPEP | 0.139
HMLMKPQKTRDVLRYLKSIGWVRLRGGQGSHEIWGLPDGSIRAVIPAGHREISAGVLMQLKRAGVDVPTQW | -0.557
HMKNYYRILGLNIDAEYEEIKAAYRILAQRHHPDKGGAAAEFRLIQEAYDILSNPLTKRNYDADLLATLN | -0.521
HMTLGEHILQYRTARGWSQEDLANALEVSRQSVSKWETDASTPELDKIVRLSEIFQVSIDELVTGKA | 0.108
HMDKPVIEDVSFDDLAYMVGERVIIRTHLRSTRDGELKSFNRAGILVSLRNRPGMELEIPRSTVASAQVVW | -2.45
HMKTGNIIAVSLVWKGKYYMIRMFFPSAARPSRADVQTEIEKVYPGSKLSSFSVSDYEPGQPLLQV | -2.31
HMSDGHLIKVLEVLDGGEAFLGRTANGGTARFSLGQLADIRRGSVVFVSEDRWEVVPDSAWPEI | -0.528
HMLPITPGQKYKFVVKSAEEAAAIIRDKLGEMAQVISVRQVEGEGLARFLKSPKLEIIAQVPVA | -0.132
HMSKEDDSLVVTFRRMLLEEVDLHELSRIDANQRRARLERVIAHLVSREGVILSASERNQLVRRVVDEAV | -0.529
HMKKPANLISEDRMVEVLYDVIIINTAKGVNKQLLQNNINNPLNYIYRSHGIDSLQFAESNAYYTS | -0.371
HMDSYSILGIEKESSMEDIEKAYIDKISKIKKEVKNEKNAAAFEAVLTKAYNDILSQKENISEEQELAE | 0.011
HMEDKFEYQGERKSLIYPTSFSELTEALGVRNMLQSIIDFATRDEDTSGYEEMKERQNEYIQEYL | 0.0302
HMEADERRNEILDAAETLITEKGYSKTTIIDILNQVGIAKGTFYYYFKSKEEVMDAIIERFI | -2.25
HMPDPLYLINGKIVNKSDFNNIDPRSIQSIEVLKANKALEAFGNDGKNGVIKITLKSSNDQM | 0.0749
HMKGWPDREQAEKIWQQGIDYAIEHHTMSPQIVKEYIFHTQGIARSAALIAARLPDMDTEKAYVLGLLHD | -0.214
